B1: AB205-ADL1-D14 (conjugate)
heavy: QVQLQQSGSELMMPGASVKISCKATGYTFSNYWIQRPGHGLEWIGEILPGTGRTIYNEKFKGKATFTADISSNTVQMQLSSLTSEDSAVYYCARRDYYGNFYYAMDYWGQGTSVTVSSAKTTPPSVYPLAPGSAAQTNSMVTLGCLVKGYFPEPVTVTWNSGSLSSGVHTFPAVLQSDLYTLSSSVTVPSSTWPSETVTCNVAHPASSTKVDKKIVPRDCGCKPCICTVPEVSSVFIFPPKPKDVLTITLTPKVTCVVVDISKDDPEVQFSWFVDDVEVHTAQTQPREEQFNSTFRSVSELPIMHQDWLNGKEFKCRVNSAAFPAPIEKTISKTKGRPKAPQVYTIPPPKEQMAKDKVSLTCMITDFFPEDITVEWQWNGQPAENYKNTQPIMDTDGSYFVYSKLNVQKSNWEAGNTFTCSVLHEGLHNHHTEKSLSHSPG
light: DIQMTQSTSSLSASLGDRVTISCSASQGINNYLNWYQQKPDGTVELLIYYTSTLQSGVPSRFSGSGSGTDYSLTISNLEPEDIGTYYCQQYSKLPRTFGGGTKLEIKRADAAPTVSIFPPSSEQLTSGGASVVCFLNNFYPKDINVKWKIDGSERQNGVLNSWTDQDSKDSTYSMSSTLTLTKDEYERHNSYTCEATHKTSTSPIVKSFNRNEC
B2: AB205-ADL5-D25 (conjugate)
heavy: B1 heavy
light: B1 light
B3: AB205-ADL10-D1 (conjugate)
heavy: B1 heavy
light: B1 light
B4: AB205-ADL5-D15 (conjugate)
heavy: B1 heavy
light: B1 light
B5: AB205-ADL1-D1 (conjugate)
heavy: B1 heavy
light: B1 light
B6: AB205-ADL5-D19 (conjugate)
heavy: B1 heavy
light: B1 light
B7: AB205-ADL1-D4 (conjugate)
heavy: B1 heavy
light: B1 light

Test system: MOLP8 cells
Experiment: Cell viability, CD138-expressing MOLP8
Assay type: cell-based
Settings: anti-CD138 ADC; for GI50: read-out: GI50 (nM) (ADC)
Method: HCC1954 (American Type Culture Collection (ATCC)) breast ductal carcinoma cells were plated at 2000 cells/well in flat bottom 96-well tissue culture plates (Corning) in a total volume of 90 μL tissue culture medium supplemented with 10% fetal bovine serum (ThermoFisher Scientific). Cells were treated with a 3-fold serial dilution of compound from 200 nM to 0.03 nM. Each concentration was tested in triplicate. At the time of treatment, a plate of untreated cells was evaluated using CellTiter-Glo®2.0 Luminescent Cell Viability Assay according to the manufacturer's recommendations (Promega; #G9241). CellTiter-Glo® 2.0 reagent was added to the medium, incubated, and assayed on an EnVision Multilabel Reader (PerkinElmer). Values represent time zero (TO). […] Percentage growth inhibition was calculated as: [(T144-T0)/(C-TO)]×100 for concentrations for which T144>/=TO or [(T144-T0)/T0]×100 for concentrations for which T144<TO. The dose response curve plots were generated using Prism 7 (Graphpad) and fit using nonlinear regression analysis and the log(inhibitor) versus response-variable slope (four parameters).

| Molecule | LD50 (nM) (ADC) | Rmin (%) (ADC) | GI50 |
| --- | --- | --- | --- |
| B1 | >400 nM | −74.008% | < 0.061 nM |
| B2 | 11.669 nM | −76.736% | < 0.061 nM |
| B3 | >400 nM | −25.099% | 0.08 nM |
| B4 | >400 nM | 2.419% | 0.268 nM |
| B5 | 0.656 nM | −100.099% | > 0.061 nM |
| B6 | >400 nM | −46.23% | < 0.061 nM |
| B7 | 0.535 nM | −99.306% | < 0.061 nM |
